In this assay the target is Full-length human RAB5 (RAB5A), purified, fluorescently labelled (human) (UniProt P20339). The assay is described as follows: MST.
Sequence of UniProt P20339 (P20339 whole entry): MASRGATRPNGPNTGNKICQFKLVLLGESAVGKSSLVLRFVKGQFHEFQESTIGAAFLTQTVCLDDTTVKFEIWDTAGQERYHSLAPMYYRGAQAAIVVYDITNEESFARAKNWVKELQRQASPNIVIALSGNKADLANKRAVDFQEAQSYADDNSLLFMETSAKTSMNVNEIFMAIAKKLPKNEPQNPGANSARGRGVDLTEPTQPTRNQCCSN

Take “6x His-tagged Etf-2^ΔHY (Etf-2 lacking the hydrophobic domain, amino acids 132-151) (natural protein)”: the Kd was found to be 21.3 nM.

Broadly, the Kd is the equilibrium constant for the complex coming apart. A lower Kd goes with tighter binding.

Values taken from paper PMC6156607.
